From US20220177587A1, “METHODS AND USES OF VARIANT CD80 FUSION PROTEINS AND RELATED CONSTRUCTS” (Alpine Immune Sciences, Inc., priority 2018, published 2022)

Experiments:
CD28 (human) [1] = target: CD28 (human) (UniProt P10747); assay: flow cytometry, Expi293F cells transfected with CD28
human CTLA-4 (human) [2] = target: human CTLA-4 (human) (UniProt P16410); assay: flow cytometry, Expi293F cells transfected with CTLA-4
PD-L1 (human) [3] = target: PD-L1 (human) (UniProt Q9NZQ7); assay: flow cytometry, Expi293F cells transfected with PD-L1
human CTLA-4 (human) [4] = target: human CTLA-4 (human) (UniProt P16410); assay: flow cytometry, CHO cells expressing huCTLA4
Target sequence in this assay (P16410 36-223): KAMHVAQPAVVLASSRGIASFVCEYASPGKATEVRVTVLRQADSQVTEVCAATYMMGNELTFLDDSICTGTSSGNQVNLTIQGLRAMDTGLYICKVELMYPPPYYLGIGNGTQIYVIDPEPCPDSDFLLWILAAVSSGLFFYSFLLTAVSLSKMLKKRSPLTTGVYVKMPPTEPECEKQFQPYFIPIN

PD-L1 (human) [5] = target: PD-L1 (human) (UniProt Q9NZQ7); assay: flow cytometry, CHO cells expressing huPD-L1
Target sequence in this assay (Q9NZQ7 19-290): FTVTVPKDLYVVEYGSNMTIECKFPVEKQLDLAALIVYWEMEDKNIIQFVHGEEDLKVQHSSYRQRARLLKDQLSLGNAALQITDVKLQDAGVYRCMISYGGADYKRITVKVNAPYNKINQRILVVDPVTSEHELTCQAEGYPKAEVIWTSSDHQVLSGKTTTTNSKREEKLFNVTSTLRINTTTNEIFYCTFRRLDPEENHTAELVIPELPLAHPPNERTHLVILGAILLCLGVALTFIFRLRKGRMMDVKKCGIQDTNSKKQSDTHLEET

CD28 (human) [6] = target: CD28 (human) (UniProt P10747); assay: flow cytometry, Jurkat/IL2 reporter cells (endogenous CD28)
CD28 (human) [7] = target: CD28 (human) (UniProt P10747); assay: flow cytometry, Jurkat cells (CD28)
human CTLA-4 (human) [8] = target: human CTLA-4 (human) (UniProt P16410); assay: flow cytometry, CHO cells stably expressing CTLA4
Target sequence in this assay (P16410 36-223): as the sequence (P16410 36-223) above

PD-L1 (human) [9] = target: PD-L1 (human) (UniProt Q9NZQ7); assay: flow cytometry, CHO cells stably expressing PD-L1
Target sequence in this assay (Q9NZQ7 19-290): as the sequence (Q9NZQ7 19-290) above

CD28 (human) [10] = target: CD28 (human) (UniProt P10747)
PD-L1 (human) [11] = target: PD-L1 (human) (UniProt Q9NZQ7)
Target sequence in this assay (Q9NZQ7 19-290): as above

CD28 (human) [12] = target: CD28 (human) (UniProt P10747); remark: listed apart in the source

## CD80 E24G/L25P/L70Q/A91G/I118V/T120S/N152T ECD-Fc (Fc fusion)
CD28 (human) [1]
  MFI: 26 MFI
Human CTLA-4 (human) [2]
  MFI: 38 MFI

## WT CD80 ECD-Fc (Example 25) (Fc fusion)
PD-L1 (human) [3]
  MFI: 70 MFI

## variant CD80 IgV-Fc E35D/M47V/T62A/A71D/K93E (Fc fusion)
Human CTLA-4 (human) [4]
  MFI at 33.3 nM: 226000 MFI
PD-L1 (human) [5]
  MFI at 33.3 nM: 693 MFI

## variant CD80 IgV-Fc Q33R/E35D/M47V/N48K/L85M/F92L (Fc fusion)
Human CTLA-4 (human) [4]
  MFI at 33.3 nM: 2680 MFI
PD-L1 (human) [5]
  MFI at 33.3 nM: 21400 MFI

## variant CD80 IgV-Fc I30V/E35D/M47V/A71G/A91V (Fc fusion)
Human CTLA-4 (human) [4]
  MFI at 33.3 nM: 205000 MFI
PD-L1 (human) [5]
  MFI at 33.3 nM: 43900 MFI

## variant CD80 IgV-Fc E35D/M47L/A71G/L97Q (Fc fusion)
Human CTLA-4 (human) [4]
  MFI at 33.3 nM: 226000 MFI
CD28 (human) [6]
  MFI at 33.3 nM: 300 MFI

## CD80 K36E/I67T/L70Q/A91G/I118V/T120S/T130A/N152T ECD-Fc (Fc fusion)
CD28 (human) [1]
  MFI: 8 MFI

## CD80 IgV-Fc H18Y/E35D/V68M/A71G/R94Q/E95V (Fc fusion)
CD28 (human) [7]
  MFI at 33.3 nM: 455 MFI
Human CTLA-4 (human) [8]
  Fold change to WT CD80: 18.6 fold
  MFI at 33.3 nM: 19400 MFI
PD-L1 (human) [9]
  Fold change to WT CD80: 25.9 fold
  MFI at 33.3 nM: 1840 MFI

## variant CD80 IgV-Fc Q33R/E35D/D46E/M47I (Fc fusion)
Human CTLA-4 (human) [4]
  MFI at 33.3 nM: 3560 MFI
CD28 (human) [6]
  MFI at 33.3 nM: 303 MFI

## variant CD80 IgV-Fc E35D/M38T/D46E/M47V/N48S (Fc fusion)
PD-L1 (human) [5]
  MFI at 33.3 nM: 19400 MFI

## CD80 T28S/L70Q/A91G/E95K/I118V/T120S/I126V/T130A/K169E ECD-Fc (Fc fusion)
CD28 (human) [1]
  MFI: 32 MFI
  parental ratio: 0.34
PD-L1 (human) [3]
  MFI: 6 MFI
  parental ratio: 0.08
Human CTLA-4 (human) [2]
  MFI: 65 MFI
  parental ratio: 0.31

## CD80 Y31H/T41G/M43L/L70Q/A91G/I118V/T120S/I126V/T130A ECD-Fc (Fc fusion)
PD-L1 (human) [3]
  MFI: 6 MFI

## WT CD80 IgV-Fc (Fc fusion)
CD28 (human) [10]
  Jurkat/IL2 reporter RLU at 50 nM, K562/OKT3/PD-L1 aAPC: 663 RLU
  Jurkat/IL2 reporter RLU at 50 nM, K562/OKT3 aAPC without PD-L1: 1250 RLU
PD-L1 (human) [11]
  Jurkat/IL2 reporter RLU at 50 nM, K562/OKT3/PD-L1 aAPC: 663 RLU

## CD80 E35D IgV-Fc (effector) (Fc fusion)
CD28 (human) [10]
  Jurkat/IL2 reporter RLU at 50 nM, K562/OKT3/PD-L1 aAPC: 2270 RLU
  Jurkat/IL2 reporter RLU at 50 nM, K562/OKT3 aAPC without PD-L1: 1200 RLU
PD-L1 (human) [11]
  Jurkat/IL2 reporter RLU at 50 nM, K562/OKT3/PD-L1 aAPC: 2270 RLU
CD28 (human) [12]
  IL-2 release, primary T cells + K562/OKT3 (No PD-L1), 100 nM: 8380

## variant CD80 IgV-Fc E35D/M43I/M47V/K89N (Fc fusion)
Human CTLA-4 (human) [4]
  MFI at 33.3 nM: 278000 MFI
PD-L1 (human) [5]
  MFI at 33.3 nM: 19200 MFI

## CD80 H18Y/A26T/E35D/A71D/L85Q IgV-Fc (effector) (Fc fusion)
CD28 (human) [10]
  Jurkat/IL2 reporter RLU at 50 nM, K562/OKT3/PD-L1 aAPC: 5220 RLU
  Jurkat/IL2 reporter RLU at 50 nM, K562/OKT3 aAPC without PD-L1: 8750 RLU
PD-L1 (human) [11]
  Jurkat/IL2 reporter RLU at 50 nM, K562/OKT3/PD-L1 aAPC: 5220 RLU
CD28 (human) [12]
  IL-2 release, primary T cells + K562/OKT3 (No PD-L1), 100 nM: 20600

## CD80 IgV-Fc H18Y/E35D/M47L/Y53F/V68M/A71G/K93R/E95V (Fc fusion)
CD28 (human) [7]
  MFI at 33.3 nM: 2190 MFI
Human CTLA-4 (human) [8]
  MFI at 33.3 nM: 19800 MFI
PD-L1 (human) [9]
  MFI at 33.3 nM: 9340 MFI

## CD80 A71D/L72V/E95K IgV-Fc (effector) (Fc fusion)
CD28 (human) [10]
  Jurkat/IL2 reporter RLU at 50 nM, K562/OKT3/PD-L1 aAPC: 4030 RLU
  Jurkat/IL2 reporter RLU at 50 nM, K562/OKT3 aAPC without PD-L1: 7110 RLU
PD-L1 (human) [11]
  Jurkat/IL2 reporter RLU at 50 nM, K562/OKT3/PD-L1 aAPC: 4030 RLU
CD28 (human) [12]
  IL-2 release, primary T cells + K562/OKT3 (No PD-L1), 100 nM: 21300

## CD80 K54M/L70Q/A91G/Y164H ECD-Fc (SEQ ID NO 1399) (Fc fusion)
CD28 (human) [1]
  MFI: 68 MFI
  parental ratio: 0.71
PD-L1 (human) [3]
  MFI: 5 MFI
  parental ratio: 0.08
Human CTLA-4 (human) [2]
  MFI: 131 MFI
  parental ratio: 0.63

## CD80 M38V/T41D/M43I/W50G/D76G/V83A/K89E/I118V/T120S/I126V/T130A ECD-Fc (Fc fusion)
CD28 (human) [1]
  MFI: 5 MFI

## CD80 IgV-Fc H18Y/E35D/D46E/M47I/V68M/R94L (Fc fusion)
Human CTLA-4 (human) [8]
  MFI at 33.3 nM: 19200 MFI
PD-L1 (human) [9]
  MFI at 33.3 nM: 2080 MFI

## CD80 IgV-Fc H18Y/E35D/M47L/V68M/E95V/L97Q (Fc fusion)
CD28 (human) [7]
  MFI at 33.3 nM: 2600 MFI
Human CTLA-4 (human) [8]
  MFI at 33.3 nM: 18000 MFI
PD-L1 (human) [9]
  MFI at 33.3 nM: 9630 MFI
